According to patent US20230398224A1:
Positions of bridges follow the written chain, without caps; N, C: chain ends. Non-standard residues stand in square brackets, D forms with d. Groups on a side chain read outwards from the residue. int‑CC7 = mannose-6-phosphonate M6PR ligand; Bip = N[C@@H](Cc1ccc(-c2ccccc2)cc1)C(=O)O; NMeA = CN[C@@H](C)C(=O)O

Biological target: Purified recombinant full length human PCSK9 with C-terminal biotinylated Avitag (human) (UniProt Q8NBP7)
Assay: SPR, ProteOn XPR36; biotinylated human PCSK9 on NeutrAvidin NLC chip

Purified recombinant full length human PCSK9 with C-terminal biotinylated Avitag (human), sequence (Q8NBP7 31-692): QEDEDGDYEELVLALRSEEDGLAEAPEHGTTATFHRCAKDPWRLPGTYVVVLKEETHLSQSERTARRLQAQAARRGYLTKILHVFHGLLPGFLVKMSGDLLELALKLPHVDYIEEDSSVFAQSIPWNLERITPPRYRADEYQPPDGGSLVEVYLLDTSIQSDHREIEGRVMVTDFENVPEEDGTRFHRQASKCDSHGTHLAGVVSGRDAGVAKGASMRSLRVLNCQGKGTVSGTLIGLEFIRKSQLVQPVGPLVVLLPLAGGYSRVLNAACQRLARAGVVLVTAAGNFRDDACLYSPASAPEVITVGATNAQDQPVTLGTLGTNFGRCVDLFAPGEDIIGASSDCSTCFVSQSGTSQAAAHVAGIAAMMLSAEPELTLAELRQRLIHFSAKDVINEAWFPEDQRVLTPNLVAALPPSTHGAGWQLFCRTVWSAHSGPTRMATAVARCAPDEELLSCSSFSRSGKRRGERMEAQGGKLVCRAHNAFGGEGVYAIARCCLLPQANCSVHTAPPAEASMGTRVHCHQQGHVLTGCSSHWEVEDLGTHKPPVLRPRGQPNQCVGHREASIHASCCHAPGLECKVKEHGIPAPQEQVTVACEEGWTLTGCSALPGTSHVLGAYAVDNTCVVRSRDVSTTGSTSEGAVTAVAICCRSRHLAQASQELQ

B1: Bifunctional compound (BFC-9) (peptide)
peptide: {CH2CO}-FVPTT[Bip][NMeA][Bip][NMeA]EAPCGK([Lys(4-oxopentanoyl)-int‑CC7])-NH2
modifications: thioether N-13; not fully specified; also: further groups not given here
In the case of B1, the Kd is reported as 7.4 nM.

B2: Bifunctional compound (BFC-3) (peptide)
peptide: {CH2CO}-FVPTT[Bip][NMeA][Bip][NMeA]EAPCGK-NH2
modifications: thioether N-13; not fully specified (residue 15); also: further groups not given here
B2 was tested, and the Kd was 7.7 nM.

B3: Bifunctional compound (BFC-8) (peptide)
peptide: {CH2CO}-FVPTT[Bip][NMeA][Bip][NMeA]EAPCGK([Lys(4-oxopentanoyl)-int‑CC7])-NH2
modifications: thioether N-13; not fully specified; also: further groups not given here
For B3, the Kd was 4.9 nM.
